Legend:
[1] = target: Recombinant human NGF (Sigma) (human, UniProt P01138 122-241); assay: cell-based or functional assay
[2] = target: Recombinant mouse NGF (R&D Systems) (mouse, UniProt P01139 122-241); assay: cell-based or functional assay
Chain of Recombinant mouse NGF (R&D Systems) (P01139 122-241 limits assumed): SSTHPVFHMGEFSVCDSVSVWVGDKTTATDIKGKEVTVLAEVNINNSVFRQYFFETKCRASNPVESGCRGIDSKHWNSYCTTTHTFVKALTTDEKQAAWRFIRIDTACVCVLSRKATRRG

Chain of Recombinant human NGF (Sigma) (P01138 122-241 limits assumed): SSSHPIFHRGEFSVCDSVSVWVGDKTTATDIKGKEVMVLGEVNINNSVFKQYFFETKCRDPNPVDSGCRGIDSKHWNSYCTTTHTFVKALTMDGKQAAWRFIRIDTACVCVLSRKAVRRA

B1: MEDI-578 IgG1 TM YTE (antibody, V domains shown)
VH: QVQLVQSGAEVKKPGSSVKVSCKASGGTFSTYGISWVRQAPGQGLEWMGGIIPIFDTGNSAQSFQGRVTITADESTSTAYMELSSLRSEDTAVYYCARSSRIYDLNPSLTAYYDMDVWGQGTMVTVSS
VL: QSVLTQPPSVSAAPGQKVTISCSGSSSNIGNNYVSWYQQLPGTAPKLLIYDNNKRPSGIPDRFSGSKSGTSATLGITGLQTGDEADYYCGTWDSSLSAWVFGGGTKLTVL
IC50 (read off the curve) [1]: ~0.8 nM
IC50 (read off the curve) [2]: ~0.3 nM

Source: patent publication US20240026036A1 (AstraZeneca / MedImmune, published 2024)
